{"source": "paper PMC12698293", "target": "LgBiT (large BiT fragment of split NanoLuc) secreted from GCN4-LgBiT receiver cells", "experiment": "split reporter"}
{"substance": "scFv-SmBiT fusion secreted by sender^high cells (anti-GCN4 scFv, HA tag, G4Sx4 linker, high-affinity SmBiT peptide)", "values": [{"measurement": "fold signal turn-on (co-culture against cells cultured individually)", "result": "> 130", "unit": "fold"}]}
